Two molecules from paper PMC6528793 (Structure (London, England : 1993), 2017) can be followed below.

Usually Kd stands for the free concentration of one partner at which half of the binding sites on the other are occupied at equilibrium, for simple one-to-one binding. High values mean a looser complex, low ones a tighter complex.

The labels stand for the following.
B1: AnkB C-terminal ankyrin domain (residues 54-168) (domain or fragment)
chain: HIKRELWGNLMVAARSNNLEEVKKILKKGIDPTQTNSYHLNRTPLLAAIEGKAYQTANYLWRKYTFDPNFKDNYGDSPISLLKKQLANPAFKDKEKKQIRALIRGMQEEKIAQSK

In data set [1] the target is B1. Nature of the data set: NMR titration.
The data set “crystal structure” deals with the molecule itself. The experiment in a line: crystal structure.

Take QEEKI [QEEKI pentapeptide derived from the AnkB C-terminus]: the Kd in data set [1] was > 8 mM. With B1, the binding result in the data set “crystal structure” is reported as “binds”.
